# Laboratory results: US12187785B2, “Recombinant protein and fragments thereof, method for producing said recombinant protein, synthetic gene and use of sculptin or recombinant protein for preparing a medicament or pharmaceutical composition for the prophylaxis and/or treatment of thromboembolic diseases or as a direct and specific …” (priority 2017, dated 2025)
# T1: trypsin (Bos taurus, UniProt P00760)
# T1 construct: gene PRSS1
# T1 sequence (P00760 24-246): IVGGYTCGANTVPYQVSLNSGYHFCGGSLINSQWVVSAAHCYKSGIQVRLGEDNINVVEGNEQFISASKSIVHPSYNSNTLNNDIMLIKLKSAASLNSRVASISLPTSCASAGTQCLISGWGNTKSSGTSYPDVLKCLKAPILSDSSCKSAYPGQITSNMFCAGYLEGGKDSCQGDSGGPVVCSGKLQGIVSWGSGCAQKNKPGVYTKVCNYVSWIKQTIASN
# What was measured:
# trypsin = biological target: T1, trypsin; assay: Degradation of recombinant protein by trypsin (SDS-PAGE and residual thrombin inhibition); format: in vitro ADME
# Procedure: Recombinant protein (10 μM) was incubated with or without serine protease 1 μM (thrombin, plasmin, trypsin or factor Xa) in phosphate buffer 50 mM containing NaCl 150 mM and 0.1% of PEG 6000, pH 7.4 for 4, 6, 7 or 18 h at 37° C. Reaction mixtures (20 μl) were split by SDS-PAGE. (A) hydrolysis SDS-PAGE (15%) of recombinant protein by serine proteases following 6 h of incubation. (B) Percentage of thrombin inhibition by recombinant protein following 6 h of incubation with serine protease (see experimental procedures). (C) hydrolysis SDS-PAGE (15%) of recombinant protein by serine proteases following 18 h of incubation. (D) Percentage of thrombin inhibition by recombinant protein following 18 h of incubation with serine protease (see experimental procedures). Numbering of (B) and (D) corresponds to numbering of (A) and (C), respectively, and recombinant protein control is represented by CTRL. Recombinant protein (strip 1); thrombin (strip 2) and thrombin with recombinant protein (strip 3); plasmin (strip 4) and plasmin with recombinant protein (strip 5); trypsin (strip 6) and trypsin with recombinant protein (strip 7); factor Xa (strip 8) and factor Xa with recombinant protein (strip 9) and protein marker (strip 10; in A). (E) Identification of cleavage sites of thrombin in recombinant protein following 7 h of incubation. (F) Identification of cleavage sites of factor Xa in recombinant protein following 4 h of incubation. Cleavage sites of thrombin and factor Xa in recombinant protein sequence are shown in FIGS. S1 and S2, respectively. Experimental procedure for (C), (D), (E) and (F) was the same as for (A) and (B), except the incubation time and the type of serine protease used. FIG. 5 discloses “GKPQG” as SEQ ID NO: 18, “MPKGG” as SEQ ID NO: 19, and “SDAVH” as SEQ ID NO: 20.
# (§1) Afterwards, it was determined whether serine proteases, like thrombin, plasmin, factor Xa and trypsin, hydrolyze recombinant protein. […] Upon addition of chromogenic substrate S-2238, the hydrolysis thereof by thrombin was monitored in spectrophotometer way. […]
# thrombin [1] = biological target: T2, thrombin (Homo sapiens, UniProt P00734); assay: Incubation without serine protease in phosphate buffer, then thrombin inhibition test; format: in vitro ADME; design: Brown and cyan colors represent heavy and light chain of thrombin respectively; settings: pH 7.4
# Procedure: Recombinant protein (10 μM) was incubated with or without serine protease 1 μM (thrombin, plasmin, trypsin or factor Xa) in phosphate buffer 50 mM containing NaCl 150 mM and 0.1% of PEG 6000, pH 7.4 for 4, 6, 7 or 18 h at 37° C. Reaction mixtures (20 μl) were split by SDS-PAGE. (A) hydrolysis SDS-PAGE (15%) of recombinant protein by serine proteases following 6 h of incubation. (B) Percentage of thrombin inhibition by recombinant protein following 6 h of incubation with serine protease (see experimental procedures). (C) hydrolysis SDS-PAGE (15%) of recombinant protein by serine proteases following 18 h of incubation. (D) Percentage of thrombin inhibition by recombinant protein following 18 h of incubation with serine protease (see experimental procedures). Numbering of (B) and (D) corresponds to numbering of (A) and (C), respectively, and recombinant protein control is represented by CTRL. […]
# as §1
# isolated human plasma = assay: Thrombin time (TT) in isolated human plasma; format: biochemical; settings: plasma of healthy human volunteers, incubation 3 min. at 37° C.
# Procedure: Plasma was obtained from blood of healthy human volunteer and incubated with different concentrations of recombinant protein. APTT, PT and TT were determined like experimental procedure. (A) Activated partial thromboplastin time (B) prothrombin time and (C) thrombin time. Ctrl is related to plasma and Sal is related to plasma plus saline.
# Finally, PT, aPTT and TT were assessed in isolated plasma of healthy human volunteers following incubation with recombinant protein for 3 min. at 37° C. […] Maximum test reading for aPTT was achieved following 12 nM, while for PT that was achieved following 6 nM of recombinant protein (FIGS. 11A and 11B).
# thrombin [2] = biological target: T2, thrombin; assay: Thrombin inhibition, hydrolysis of chromogenic substrate S-2238; format: biochemical; design: Brown and cyan colors represent heavy and light chain of thrombin respectively
# [3] = from plot of Kobs versus recombinant protein concentration
molecule,measurement,setting,value
"GKPQGHPHDALEARSDAVHTAVPKMPKGGHGGFEPIPIDYDERALEARSDAVHTAVPKMPKGGLGGFEPIPIDYDERALEARSDAVHTAVPKMPKGGHGGFEPIPIDYDERALEARSDAVHTAVPKMPKGGHGGFEPIPIDYDERALHALEHHHHHH (protein, Sculptin recombinat protein, recombinant His-tagged protein modified from tick sculptin, expressed in E. coli) GKPQGHPHDALEARSDAVHTAVPKMPKGGHGGFEPIPIDYDERALEARSDAVHTAVPKMPKGGLGGFEPIPIDYDERALEARSDAVHTAVPKMPKGGHGGFEPIPIDYDERALEARSDAVHTAVPKMPKGGHGGFEPIPIDYDERALHALEHHHHHH",SDS-PAGE strip of 20-kDa (non-digested recombinant protein),"trypsin; 10 μM protein with 1 μM trypsin, 6 h at 37° C.",completely disappeared
same,SDS-PAGE strip of 20-kDa (recombinant protein monomer),"trypsin; 10 μM protein with 1 μM trypsin, 18 h at 37° C.",completely disappeared
same,thrombin inhibition after incubation,"trypsin; after 18 h incubation with trypsin, diluted to 100 pM",did not inhibit thrombin
same,thrombin inhibition after incubation without serine protease,"thrombin [1]; 6 h at 37° C., control is 100 pM of fresh recombinant protein",inhibited thrombin in similar way to control
same,thrombin inhibition after incubation without serine protease,"thrombin [1]; 18 h at 37° C., control of fresh recombinant protein",inhibited thrombin in similar way to control
same,TT,isolated human plasma,prolonged by recombinant protein in peak-molar range
same,Koff,thrombin [2]; [3],0.65±0.04×10^−3 s^−1
same,Kon,thrombin [2]; [3],4.04±0.03×10^7 M^−1 s^−1
same,decrease of residual activity of thrombin,"thrombin [2]; recombinant protein 1 nM, thrombin 100 pM, 6 h at 37° C., pH 7.4",about 97%
same,Inhibition Type,thrombin [2]; this study,Competing
